In article PMC2275150:

Target: T1, Cdc13-DBD (Saccharomyces cerevisiae, UniProt P32797 497-694)
T1 sequence: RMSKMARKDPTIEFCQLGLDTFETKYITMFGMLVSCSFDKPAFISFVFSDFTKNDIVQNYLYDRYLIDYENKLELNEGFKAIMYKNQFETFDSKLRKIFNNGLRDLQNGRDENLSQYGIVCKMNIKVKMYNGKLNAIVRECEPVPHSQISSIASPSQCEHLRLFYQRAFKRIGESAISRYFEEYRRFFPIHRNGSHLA
Assay: NMR

GTGTGGGTGTG (ssDNA) [Tel11]: binds.
